Laboratory results as given in US20080249083.

Target: T1, amyloid β(3-11)
T1 chain: EFRHDSGYE

B1: human QC (glutaminyl cyclase, QPCT) (protein)
chain: VSPSASAWPEEKNYHQPAILNSSALRQIAEGTSISEMWQNDLQPLLIERYPGSPGSYAARQHIMQRIQRLQADWVLEIDTFLSQTPYGYRSFSNIISTLNPTAKRHLVLACHYDSKYFSHWNNRVFVGATDSAVPCAMMLELARALDKKLLSLKTVSDSKPDLSLQLIFFDGEEAFLHWSPQDSLYGSRHLAAKMASTPHPPGARGTSQLHGMDLLVLLDLIGAPNPTFPNFFPNSARWFERLQAIEHELHELGLLKDHSLEGRYFQNYSYGGVIQDDHIPFLRRGVPVLHLIPSPFPEVWHTMDDNEENLDESTIDNLNKILQVFVLEYLHL
conversion of Aβ(3-11) into pGlu-Aβ(3-11), Maldi-Tof mass spectrometry: human QC and human isoQC (YSShisoQCI55NC351A C-His) catalyze the conversion of Aβ(3-11) into pGlu-Aβ(3-11)

B2: YSShisoQCI55NC351A C-His (human isoQC expressed in P. pastoris) (protein)
chain: FYTIWSGWHRRTEELPLGRELRVPLNGSLPEARLRRVVGQLDPQRLWSTYLRPLLVVRTPGSPGNLQVRKFLEATLRSLTAGWHVELDPFTASTPLGPVDFGNVVATLDPRAARHLTLACHYDSKLFPPGSTPFVGATDSAVPCALLLELAQALDLELSRAKKQAAPVTLQLLFLDGEEALKEWGPKDSLYGSRHLAQLMESIPHSPGPTRIQAIELFMLLDLLGAPNPTFYSHFPRTVRWFHRLRSIEKRLHRLNLLQSHPQEVMYFQPGEPFGSVEDDHIPFLRRGVPVLHLISTPFPAVWHTPADTEVNLHPPTVHNLARILAVFLAEYLGLHHHHHH
conversion of Aβ(3-11) into pGlu-Aβ(3-11), Maldi-Tof mass spectrometry: human QC and human isoQC (YSShisoQCI55NC351A C-His) catalyze the conversion of Aβ(3-11) into pGlu-Aβ(3-11); the conversion of N-terminal glutamic acid by hisoQC is much slower compared with hQC
